One molecule from patent US20180312557A1, “Leg1 Protein, Leg1 Gene, and Uses and Drugs thereof” (ZHEJIANG UNIVERSITY, priority 2016, published 2018) can be followed below.

Data set [1] can be described thus: Body weight increase of wild type mice on high-fat diet with intragastric mLeg1-Re. The following applies: 20 μg intragastric every day, one month. It is filed as in vivo, mouse. As to the method: 23.4 10-weeks old wild type mice having the similar body weight (t1) were randomly divided into 3 groups with 3 to 4 mice in each group. The wild type mice were fed with high-fat diet and intragrastric administration with 20 μg of mLeg1-Re protein every day, which served as mLeg1-Re administration experimental group. Another group of wild type mice of the same age were fed with the same high-fat diet and intragrastric administration with the same amount of bovine serum albumin (BSA) every day, which served as BSA administration control group. The left group of wild type mice at the same age were fed with the same standard chow diet, which served as another control group. One month later, the body weight (t2) of these mice were measured, and the results were represented by increased body weight […]. The experiment was repeated twice, and the final body weight changes (i.e., increased body weight) were averaged.

For a further data set, the target named is T1, EGFR (Mus musculus, UniProt Q01279).
T1 construct: from tissue; host or cells: liver of mLeg1^Δ/Δ mice
Nature of the data set: EGFR pulled down with mLeg1-Re from liver after intragastric administration (co-immunoprecipitation). It is filed as in vivo. The following applies: liver of mLeg1Δ/Δ mice, two hours after the intragastric administration. The text has this:
(§1) In order to further verify this hypothesis, the inventors administered the mLeg1-Re protein to the mLeg1^Δ/Δ mice by intragastric administration, and detected, by the method of co-immunoprecipitation, whether the mLeg1-Re protein could reach the liver and bind to EGFR in the liver.

The subject of data set [2] is Akt phosphorylation of the HepG2 cells. Nature of the data set: Akt phosphorylation of HepG2 cells incubated with recombinant mLeg1-Re, alone or with wild-type mLeg1. It is filed as cell-based, human. Here is the method: 23.3 The extracted recombinant protein mLeg1-Re and the wild type mLeg1 protein were used to incubate the HepG2 cells, and then the Akt phosphorylation level of the HepG2 cell was detected. As to the details, reference can be made to step 18.2.2.
The partially purified wild-type mLeg1 protein (50 ng) was mixed with excess mLeg1-Re protein (500 ng) for 10 minutes, and then used to incubate HepG2 cell for 10 minutes, and then the Akt phosphorylation level was detected in these cells. […] It is highly likely attributed to the fact that the mLeg1-Re protein is also capable of competitively binding to the EGFR, thereby blocking the ability of the wild-type mLeg1 to bind to the EGFR and activate downstream Akt.

The nature of data set [3]: mLeg1-Re protein in liver of mLeg1Δ/Δ mice after intragastric administration (co-immunoprecipitation). The following applies: two hours after the intragastric administration. It counts as in vivo, mouse.
Excerpt: as §1

B1: mLeg1-Re protein: modification-defective recombinant mLeg1 protein expressed in an Escherichia coli expression system (protein)
chain: EVSDSSDPYPPLWEDSPEQLSDYMMEDGNYIINPWVYTDRMGMYRILLEETAMYFAKYGPENEQNLLWGLPLQFGWQYQSGRLADPTGMTDCGNELNESLCVSVDSWWADINYYLSVIPFLAAVDSGITGISPNQITILPPPKDQMRFCYNVSDCQSAVPGTMNRWRDFFQYMQLNSSDFDGLLNYLWEAHASSLDYPTSAFGDRYNFYSEKEANFEENWAIAVNYLAAARLPTTQNRTYSFQRGLPPRVLVDTDIAPFIPDFTPLQNEVLVSLKLLGDTDRNSGSLSLTLWENLMSTKLARTLFLKAFEEFLATSS
modifications: left off: small tags and cut ends
notes: modification-defective recombinant mLeg1 protein expressed in an Escherichia coli expression system
Turning to B1, in data set [1], the “body weight increase compared with BSA control group” value is “significantly lower” and the “body weight increase compared with mice fed standard chow diet” value was “almost the same as that of the mice fed with standard chow diet”. For the same molecule, the “EGFR in the protein pulled down by the mLeg1 antibody” value with EGFR is reported as “significant EGFR protein level could be detected”. The “ability to induce Akt phosphorylation” value in data set [2] (HepG2 incubated with mLeg1-Re alone) is “lost the ability to induce Akt phosphorylation”. Besides, in data set [2] (HepG2 incubated with mLeg1-Re for 10 minutes first, then mLeg1 added), the “ability of the mLeg1 protein to activate Akt” value was “completely inhibited”. Also, in data set [2] (mLeg1 (50 ng) mixed with excess mLeg1-Re (500 ng) for 10 minutes, then HepG2 10 minutes), the “inhibition of mLeg1-induced Akt phosphorylation” value is recorded as “cannot inhibit the functions of the mLeg1 protein”. Also, the “mLeg1-Re protein in the liver” value in data set [3] was “could be detected in the liver”.
